These results are taken from patent publication US20160238591A1 (MIT, published 2016).

The assay concerns the target T1, Cys2-pilin-C (Streptococcus pyogenes serotype M1, UniProt Q9A1S2 18-299, N-terminal Cys2 linker attached to the shell surface of the nanocrystal (QD or dot-in-rod HNC) during shell synthesis).
T1 construct: Tested only as a nanocrystal conjugate; also called QD-pilin-C; CdSe/CdS QD-pilin-C conjugates
T1 sequence: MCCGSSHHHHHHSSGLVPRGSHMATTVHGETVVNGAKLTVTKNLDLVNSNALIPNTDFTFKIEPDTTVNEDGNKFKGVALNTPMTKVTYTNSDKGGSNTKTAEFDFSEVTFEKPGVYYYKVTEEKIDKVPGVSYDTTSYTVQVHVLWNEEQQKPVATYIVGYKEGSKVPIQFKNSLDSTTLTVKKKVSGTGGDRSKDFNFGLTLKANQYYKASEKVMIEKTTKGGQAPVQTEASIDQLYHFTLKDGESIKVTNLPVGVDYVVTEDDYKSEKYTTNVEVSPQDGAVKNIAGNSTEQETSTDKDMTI
Nature of the assay: TEM and HRTEM (FIGS. 11, 11A and 11B).

B1: CsgAHisTag amyloid fibrils (other)
chain: GVVPQYGGGGNHGGGGNNSGPNHHHHHHHSELNIYQYGGGNSALALQTDARNSDLTITQHGGGNGADVGQGSDDSSIDLTQRGFGNSATLDQWNGKNSEMTVKQFGGGNGAAVDQTASNSSVNVTQVGFGNNATAHQYHHHHHHH
notes: Fibrils composed only of CsgAHisTag subunits, used as a control for QD-pilin-C
With B1, the binding result is listed as “no binding”.
